# Data: publication PMC3954913 (Molecular microbiology, 2014)
# B1: recombinant Tp0750_G23-D223 (natural protein, UniProt O83731 23-223, looked up)
# chain: GERTVPVDIFLMIDKSRSMQEPGKFSSLHRWVRDEFVSSMTIQGDWITVYQFYEKPEELITLTLRSEQDRDKIISVVDSIVPNGRYTDIGRALDTVWEIQEKRKDNNRHKVLLLVTDLEHDAPLTSKYRGKQRSFQSPYLVRARRVKHDNWYEITLDMAVHDRVAHTARELYRSIAAAHSKRPTPTPPAKESSPRYTPSLD
# Biological target: T1, pallilysin (Tp0751_C24-P237) (Treponema pallidum, UniProt O83732 24-237)
# T1 sequence (looked up): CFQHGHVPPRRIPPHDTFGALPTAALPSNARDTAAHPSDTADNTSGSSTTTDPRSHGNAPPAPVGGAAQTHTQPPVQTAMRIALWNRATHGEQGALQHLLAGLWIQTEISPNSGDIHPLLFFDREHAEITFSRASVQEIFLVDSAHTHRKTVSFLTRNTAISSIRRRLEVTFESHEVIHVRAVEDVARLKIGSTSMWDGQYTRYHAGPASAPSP
# Test: dynamic light scattering
binder,measurement,value
B1,binding result,binds
